Molecular target: human His6-TfR1, P02786
Assay: SPR
Conditions: chain shown with the change

Chain of human His6-TfR1, P02786 (P02786 89-760): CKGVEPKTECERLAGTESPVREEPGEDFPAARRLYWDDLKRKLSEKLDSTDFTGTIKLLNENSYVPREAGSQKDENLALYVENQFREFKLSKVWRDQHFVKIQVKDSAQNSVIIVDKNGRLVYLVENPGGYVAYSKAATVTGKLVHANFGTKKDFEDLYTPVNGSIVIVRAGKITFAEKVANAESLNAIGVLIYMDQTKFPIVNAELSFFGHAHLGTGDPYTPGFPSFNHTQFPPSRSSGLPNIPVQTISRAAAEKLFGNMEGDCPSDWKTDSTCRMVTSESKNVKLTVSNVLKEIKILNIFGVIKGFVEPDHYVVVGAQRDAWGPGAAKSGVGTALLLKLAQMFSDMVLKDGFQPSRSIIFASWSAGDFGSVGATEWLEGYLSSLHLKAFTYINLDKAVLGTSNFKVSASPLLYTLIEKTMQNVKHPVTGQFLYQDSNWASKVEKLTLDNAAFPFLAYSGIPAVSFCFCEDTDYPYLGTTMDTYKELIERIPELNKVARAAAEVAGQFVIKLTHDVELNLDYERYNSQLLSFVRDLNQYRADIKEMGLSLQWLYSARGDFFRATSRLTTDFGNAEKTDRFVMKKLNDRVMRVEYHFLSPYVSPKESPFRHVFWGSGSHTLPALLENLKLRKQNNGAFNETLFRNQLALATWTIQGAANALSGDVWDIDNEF

- Kd: 46 nM
B1: BCY15468 Ni:A del; Ti:A del; Nii:Ac (N-terminal acetyl cap) (peptide)
chain: CSPDAHLGCISYC

— paper PMC11983102, “Conjugation to a transferrin receptor 1-binding Bicycle peptide enhances ASO and siRNA potency in skeletal and cardiac muscles” (Nucleic Acids Research, 2025)
